Target: the molecule itself
Experiment: native gel or EMSA

B1: long isoform of Sox5 (natural protein)
chain: not shown
stoichiometry N: 2

Reference: paper PMC2553580 (Nucleic Acids Research, 2008)
